Experimental data reported in the nanobody polyreactivity screen of Harvey et al. (2022).

Experiment: yeast display, Sf9 membrane polyspecificity reagent, FACS + sequencing; frameworks hold sequencing errors
Summary of the method: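 A nanobody's polyreactivity label depends on the gate it was sorted from. Yeast display cells were stained with 10% biotinylated, detergent-solubilized Sf9 membrane reagent for 1 hour at 4 °C, enriched on streptavidin microbeads and sorted by FACS. The low and high (top ~1%) gates were set on anti-HA fluorescence for expression and streptavidin fluorescence for reagent binding.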
With “QVQLVESGGGLVQAGGSLRLSCAASGSIFWLYTMGWYRQAPGKERELVATITQSGSTYYADSVKGRFTISRDNAKNTVYLQMNSLKPEDTAVYYCAARVVWGPESDYWGQGTQVTVSS” the “polyreactivity (PSR sort gate)” value was “low polyreactivity”. With “QVQLVESGGGLVQAGGSLRLSCAASGSIFWPNPMGGYRQAPGKERELVAGSTFSGGSTYADSVKGRFTISRDNAKNTVYLQMNSLKPEDTAVYYCAVVYYRDPRMDFWRQGTQVTVSS” the “polyreactivity (PSR sort gate)” value was “high polyreactivity”. In the case of “QVQLVESGGGLVQAGGSLRLSCAASGSIFWRNAMGWYRQAPGKERELVAAISRVGSTNYADSVKGRFTISRDNAKNTVYLQMNSLKPEDTAVYYCAADGTVVRDFDYWGQGTQVTVSS”, the “polyreactivity (PSR sort gate)” value is reported as “low polyreactivity”. For “QVQLVESGGGLVQAGGSLRLSCAASGSIFWRNVMGWYRQAPGKERELVAAISSGGSTYYADSVKGRFTISRDNAKNTVYLQMNSLKPEDTAVYYCAAPRYDYWGQGTQVTVSS”, the “polyreactivity (PSR sort gate)” value was “high polyreactivity”. For “QVQLVESGGGLVQAGGSLRLSCAASGSIFWSYAMGWYRQAPGKERELVAAINWSGGRTYYADSVKGRFTISRDNAQNTVYLQMNSLKPEDTAVYYCNAPVHTAQGDEYDYWGQGTQVTVSS”, the “polyreactivity (PSR sort gate)” value was “high polyreactivity”. In the case of “QVQLVESGGGLVQAGGSLRLSCAASGSIFWSYAMGWYRQAPGKERELVAVINWSGGSTYYADSVKGRFTISRDNAKNTVYLQMNSLKPEDTAVYYCNKDLGPTKRPFTFDYWGQGTQVTVSS”, the “polyreactivity (PSR sort gate)” value is reported as “low polyreactivity”. In the case of “QVQLVESGGGLVQAGGSLRLSCAASGSIFWSYAMGWYRQATGKERELVAAITWSGGNTYADSVKGRFTISRDNAKNTVYLQMNSLKPEDTAVYYCAADPAHGTKWYVYPSHDDYWGQGTQVTVSS”, the “polyreactivity (PSR sort gate)” value is reported as “low polyreactivity”. With “QVQLVESGGGLVQAGGSLRLSCAASGSIFWTNAMGWYRQAPGKERELVARITYSGGSTYSADSVKGRFTISRDNAKNTVYLQMNSLKPEDTAVYYCNARTHGWPYSRYYYWGQGTQVTVSS” the “polyreactivity (PSR sort gate)” value was “high polyreactivity”. In the case of “QVQLVESGGGLVQAGGSLRLSCAASGSIFWWNAMGWYRQAPGKERELVASIGDSTYYADSVKGRFTISRDNAKNTVYLQMNSLKPEDTAVYYCYAEVLNYLVFGYQLGYDYWGQGTQVTVSS”, the “polyreactivity (PSR sort gate)” value is reported as “low polyreactivity”. For “QVQLVESGGGLVQAGGSLRLSCAASGSIFWYNDMGWYRQAPGKEREFVAAITWDDGSTYYADSVKGRFTISRDNAKNTVYLQMNSLKPEDTAVYYCAAYVWYYDPASGWFITDYDYWGQGTQVTVSS”, the “polyreactivity (PSR sort gate)” value was “high polyreactivity”. For “QVQLVESGGGLVQAGGSLRLSCAASGSIFWYNTMGWYRPAPGKERELVAAISKSGTSTYYADSVKGRFTISRDNAKNTVYLQMNSLKPEDTAVYYCAAALPGYGDYYYWGQGTQVTVSS”, the “polyreactivity (PSR sort gate)” value was “high polyreactivity”. With “QVQLVESGGGLVQAGGSLRLSCAASGSIFWYNTMGWYRQAPGKERELVASISWDGGTYYADSVKGRFTISRDNAKNTVYLQMNSLKPEVTAVYYCNVAWYWGYDYWGQGTQVTVSS” the “polyreactivity (PSR sort gate)” value was “low polyreactivity”. In the case of “QVQLVESGGGLVQAGGSLRLSCAASGSIFWYYAMGWYRQAPGKERELVAAISASGSSTYYADSVKGRFTISRDNAKNTVYLQMNSLKPEDTAVYDCAATYSLYNDWLYHYFPEEYDYWGQGTQVTVSS”, the “polyreactivity (PSR sort gate)” value is reported as “low polyreactivity”. In the case of “QVQLVESGGGLVQAGGSLRLSCAASGSIFWYYAMGWYRQAPGKERELVAAISSGGSTYYADSVKGRYTISRDNAKNTVYLQMNSLKPEDTAVYYCAAGAFGQILNYWGQGTQVTVSS”, the “polyreactivity (PSR sort gate)” value is reported as “high polyreactivity”. In the case of “QVQLVESGGGLVQAGGSLRLSCAASGSIFYANAMGWYRQAPGKERELVAAISRSGGRTYYADSVKGRFTISRDNAKNTVYLQMNSLKPEDTAVYYCNAVYVSYTYQQTRSGGYDYWGQGTQVTVSS”, the “polyreactivity (PSR sort gate)” value is reported as “high polyreactivity”. For “QVQLVESGGGLVQAGGSLRLSCAASGSIFYANVKGWSRQAPGKERELDATISISSSTNYADSVKGRFTISRDNAKNTVYLQMNSLKPEDTAVYYCNASFGHHYSYWVDTSYDYWGQGTQVTVSS”, the “polyreactivity (PSR sort gate)” value was “low polyreactivity”. In the case of “QVQLVESGGGLVQAGGSLRLSCAASGSIFYAYAMGWYRQAPGKERELVAGINTRGGSTYYADSVKGRFTISRDNAKNTVYLQMNSLKPEDTAVYYCNARTLTVLEFDYWGQGTQVTVSS”, the “polyreactivity (PSR sort gate)” value is reported as “low polyreactivity”. In the case of “QVQLVESGGGLVQAGGSLRLSCAASGSIFYAYAMGWYRQAPGKERELVATITSGGSTNYADSVKGRFTISRDNAKNTVYLQMNSLKPEDTAVYYCAVDISYSLGGGFGYDYWGQGTQVTVSS”, the “polyreactivity (PSR sort gate)” value is reported as “low polyreactivity”. With “QVQLVESGGGLVQAGGSLRLSCAASGSIFYAYYMGWYRQAPGKESELVAAINWSGDSTYYADSVKGRFTISRDNAKNTVYLQMNSLKPEDTAVYYCAAVSGSGDSGEYDYWGQGTQVTVSS” the “polyreactivity (PSR sort gate)” value was “low polyreactivity”. For “QVQLVESGGGLVQAGGSLRLSCAASGSIFYDYALGWYRQAPGKERELVAAINSGDSTYYADSVKGRFTISRDNAKNTVYLQMNSLKPEDTAVYYCAATYFSPFIEYDYWGQGTQVTVSS”, the “polyreactivity (PSR sort gate)” value was “low polyreactivity”. With “QVQLVESGGGLVQAGGSLRLSCAASGSIFYENTMGWYRQAPGKERELVASISGGGSTYADSVKGRFTISRDNAKHTVYLQMNSLKPEDTAVYYCNADSSTEYDYWGQGTQVTVSA” the “polyreactivity (PSR sort gate)” value was “low polyreactivity”. With “QVQLVESGGGLVQAGGSLRLSCAASGSIFYENVMGWYRQAPGKERELVAGISRSGGRTYYADSVKGRFTISRDNAKNTVYFQMNSLKPEDTAVYYCAALTPRNRYRKFDYWGQGTQVTVSS” the “polyreactivity (PSR sort gate)” value was “high polyreactivity”. With “QVQLVESGGGLVQAGGSLRLSCAASGSIFYEYAMGWYRQAPGKERELLASINRGGGSTYYADSVKGRFTISRDNAKNTVYLQMNSLKPEDTAVYYCAAQWKYRQSYLDYYWGQGTQVTVSS” the “polyreactivity (PSR sort gate)” value was “low polyreactivity”. For “QVQLVESGGGLVQAGGSLRLSCAASGSIFYEYAMGWYRQAPGKERELVAAINWDGGTYYADSVKGRFTISRDNAKNTVYLQMNSLKPEDTAVYYCAKPYDWGVYSQSDSDYWGQGTQVTVSS”, the “polyreactivity (PSR sort gate)” value was “low polyreactivity”. With “QVQLVESGGGLVQAGGSLRLSCAASGSIFYFNAMGWYRQAPGKERELVAAINYSGGSTYYADSVKGRFTISRDNAKNTVYLQMNSLKPEDTAVYYCAAVTYFGWYPYRMEYWGQGTQVTVSS” the “polyreactivity (PSR sort gate)” value was “high polyreactivity”. With “QVQLVESGGGLVQAGGSLRLSCAASGSIFYFYAMGWYRQAPGKERELVAAITSGGSTYYADSVEGRFTISRDNAKNTVYLQMNSLKPEDTAVYYCAAQFYDLYHGTTYDYWGQGTQVTVSS” the “polyreactivity (PSR sort gate)” value was “high polyreactivity”. In the case of “QVQLVESGGGLVQAGGSLRLSCAASGSIFYGNAMGWYRQAPGKERELVAAISSSGGSTYYADSVKGRFTISRDNAKNTVYLQMISLKPEDTAVYYCAADSTYYNSYDYWGQGTQVTVSS”, the “polyreactivity (PSR sort gate)” value is reported as “low polyreactivity”. For “QVQLVESGGGLVQAGGSLRLSCAASGSIFYGNAMGWYRQAPGKERELVAAITRGTRTYYADSVKGRFTISRDNAKNTVYLQMNSLKPEDTAVYYCAAYLYVPYRYKYDYWGQGAQVTVSS”, the “polyreactivity (PSR sort gate)” value was “high polyreactivity”. In the case of “QVQLVESGGGLVQAGGSLRLSCAASGSIFYGNAMGWYRQAPGKERELVAGISWSGGSTYYADSVKGRFTISRDNAKNSVFLQMNSLKPEETAVYYCAAVRWGSYTLSDDYWGQGTQLTVSS”, the “polyreactivity (PSR sort gate)” value is reported as “low polyreactivity”. In the case of “QVQLVESGGGLVQAGGSLRLSCAASGSIFYGYTMGWYRQEPGKERELVAAIRKSGGSTNYADSVKGRFTISRDNAKNNVYLQMNSLKPEDTAVYYCAAAYYRGRGYYWGQGTQVTVSS”, the “polyreactivity (PSR sort gate)” value is reported as “high polyreactivity”.
